The kon is the second-order rate constant of association. As a reminder, the stoichiometry N is a count of units in the complex or per binding partner. What is called Kd is the concentration at which binding is half-saturated. Low values mean higher affinity, high ones lower affinity.

Experimental findings from paper PMC12285911 (Nature Structural & Molecular Biology, 2025) are described below.

Holding throughout (details): both partners purified
Test [1] addresses T1, ^FAMFAT10 (GG–FAT10 N-terminally labeled with fluorescein amidite by sortase) (human, 5-FAM on the N terminus (5-FAM conjugated to the N terminus of the peptide …, attached by sortase)).
T1 construct: GG added to the N terminus of FAT10 for sortase labeling (scar left after Smt3 cleavage); also called GG–FAT10 (labeled); source: E. coli BL21*, purified; sortase-labeled, enriched on Ni-NTA, gel filtration; not shown: His, N-terminal, cleaved; Smt3, N-terminal, cleaved
T1 chain: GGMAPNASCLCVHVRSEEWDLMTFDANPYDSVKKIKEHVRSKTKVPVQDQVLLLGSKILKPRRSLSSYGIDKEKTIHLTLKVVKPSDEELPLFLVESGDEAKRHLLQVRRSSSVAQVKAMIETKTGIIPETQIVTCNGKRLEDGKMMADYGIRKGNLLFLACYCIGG
Description: fluorescence polarisation; titration: ^FAMFAT10 (100 nM) incubated with varying NUB1 concentrations on ice (45 min by the legends, 30 min by the methods), polarisation read in a 384-well plate preheated to 30 °C; the Kd is called approximate (some aggregation at higher NUB1 concentrations).

In test [2] the target is T1, ^FAMFAT10 (GG–FAT10 N-terminally …). Description: fluorescence polarisation; kinetics: ^FAMFAT10 (20 nM) mixed with NUB1 (250–4,000 nM), polarisation over time, single exponentials, kobs against NUB1 concentration, kon by linear regression; 30 °C.
For test [3], the target named is T2, FAT10 (human leukocyte antigen-F-adjacent transcript 10), wild type, full length, unlabeled (human).
T2 construct: also called wild-type FAT10; source: E. coli BL21*, purified (Ni-NTA, His–ULP1 cleavage, HiTrap SP, gel filtration); not shown: His, N-terminal, cleaved; Smt3, N-terminal, cleaved
T2 chain: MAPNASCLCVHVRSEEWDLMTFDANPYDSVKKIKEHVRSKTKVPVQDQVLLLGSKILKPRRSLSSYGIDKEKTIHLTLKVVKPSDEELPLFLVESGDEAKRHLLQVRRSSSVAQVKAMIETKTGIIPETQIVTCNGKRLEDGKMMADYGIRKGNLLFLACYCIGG
Description: SEC; NUB1 (50 µM) incubated with FAT10 (75 µM) for 30 min on ice, Superdex 200 Increase 10/300; the single complex peak was pooled and run on SEC–MALS (60 mM HEPES pH 7.4, 50 mM NaCl, 50 mM KCl, 5% glycerol, 10 mM MgCl2, 0.5 mM TCEP). In general terms: In gel filtration, larger molecules generally elute earlier.

For test [4], the target named is T3, Rpn1 (proteasomal receptor subunit of the 19S regulatory particle) (human (endogenous in HEK293), UniProt Q13200 1-908).
T3 construct: Rpn1, subunit of the human 26S proteasome; stood in the experiment as a subunit of the whole hs26S proteasome; also called proteasomal Rpn1 subunit; source: endogenous, within the hs26S proteasome purified from HEK293 cells
Put plainly: cryo-EM structure; hs26S proteasome mixed with preincubated (20 min) FAT10–Eos + NUB1 complex in 20 mM HEPES pH 7.4, 25 mM NaCl, 25 mM KCl, 5 mM MgCl2, 2 mM ATP, for 30 s or 60 s before plunge-freezing; nonprocessing and processing states.

T3 sequence (Q13200 whole entry): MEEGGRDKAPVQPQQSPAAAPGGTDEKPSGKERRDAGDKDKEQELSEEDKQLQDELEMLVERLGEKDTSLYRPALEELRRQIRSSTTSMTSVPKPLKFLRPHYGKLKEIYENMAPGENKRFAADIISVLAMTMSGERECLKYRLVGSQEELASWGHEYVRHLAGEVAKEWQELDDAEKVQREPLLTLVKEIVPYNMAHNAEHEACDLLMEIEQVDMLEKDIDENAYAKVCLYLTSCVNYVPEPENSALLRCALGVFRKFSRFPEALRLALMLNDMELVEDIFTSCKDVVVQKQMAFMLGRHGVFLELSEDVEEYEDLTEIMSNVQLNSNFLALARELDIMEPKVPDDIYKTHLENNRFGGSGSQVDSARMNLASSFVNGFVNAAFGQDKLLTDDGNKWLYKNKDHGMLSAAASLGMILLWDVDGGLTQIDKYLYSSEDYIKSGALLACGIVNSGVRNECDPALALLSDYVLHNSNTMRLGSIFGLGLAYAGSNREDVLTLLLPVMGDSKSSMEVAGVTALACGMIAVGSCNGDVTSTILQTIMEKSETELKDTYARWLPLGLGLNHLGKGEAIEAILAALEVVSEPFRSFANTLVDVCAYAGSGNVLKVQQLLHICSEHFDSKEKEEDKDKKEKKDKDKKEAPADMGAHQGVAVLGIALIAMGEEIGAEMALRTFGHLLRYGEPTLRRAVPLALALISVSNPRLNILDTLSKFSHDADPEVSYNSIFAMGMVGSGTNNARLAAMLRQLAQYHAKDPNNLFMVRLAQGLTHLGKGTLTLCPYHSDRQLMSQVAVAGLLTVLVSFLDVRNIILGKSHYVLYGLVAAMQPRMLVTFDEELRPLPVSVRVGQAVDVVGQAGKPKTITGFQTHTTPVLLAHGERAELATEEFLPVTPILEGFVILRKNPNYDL

B1: NUB1^Δ1–175 (domain or fragment)
chain: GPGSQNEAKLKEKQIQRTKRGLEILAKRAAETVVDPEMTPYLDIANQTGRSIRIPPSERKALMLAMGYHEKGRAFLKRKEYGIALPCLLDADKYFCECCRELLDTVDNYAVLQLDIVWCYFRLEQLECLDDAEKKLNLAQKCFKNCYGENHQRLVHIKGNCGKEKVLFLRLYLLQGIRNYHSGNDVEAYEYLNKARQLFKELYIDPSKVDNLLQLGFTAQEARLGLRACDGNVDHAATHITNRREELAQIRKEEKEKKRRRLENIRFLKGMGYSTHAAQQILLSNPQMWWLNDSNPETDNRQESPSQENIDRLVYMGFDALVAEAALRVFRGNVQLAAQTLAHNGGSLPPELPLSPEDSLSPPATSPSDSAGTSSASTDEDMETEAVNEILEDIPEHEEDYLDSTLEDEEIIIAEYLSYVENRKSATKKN
notes: overhang left at the N terminus after removal of GST by precision (3C) protease; also called linker-trap domain; source: E. coli BL21*, purified (GSH resin, GST–3C protease cleavage, gel filtration); not shown: GST, N-terminal, cleaved
Regarding B1, the binding result in test [1] was “binds”.

B2: NUB1 (NEDD8 ultimate buster 1), wild type, full length (natural protein)
chain: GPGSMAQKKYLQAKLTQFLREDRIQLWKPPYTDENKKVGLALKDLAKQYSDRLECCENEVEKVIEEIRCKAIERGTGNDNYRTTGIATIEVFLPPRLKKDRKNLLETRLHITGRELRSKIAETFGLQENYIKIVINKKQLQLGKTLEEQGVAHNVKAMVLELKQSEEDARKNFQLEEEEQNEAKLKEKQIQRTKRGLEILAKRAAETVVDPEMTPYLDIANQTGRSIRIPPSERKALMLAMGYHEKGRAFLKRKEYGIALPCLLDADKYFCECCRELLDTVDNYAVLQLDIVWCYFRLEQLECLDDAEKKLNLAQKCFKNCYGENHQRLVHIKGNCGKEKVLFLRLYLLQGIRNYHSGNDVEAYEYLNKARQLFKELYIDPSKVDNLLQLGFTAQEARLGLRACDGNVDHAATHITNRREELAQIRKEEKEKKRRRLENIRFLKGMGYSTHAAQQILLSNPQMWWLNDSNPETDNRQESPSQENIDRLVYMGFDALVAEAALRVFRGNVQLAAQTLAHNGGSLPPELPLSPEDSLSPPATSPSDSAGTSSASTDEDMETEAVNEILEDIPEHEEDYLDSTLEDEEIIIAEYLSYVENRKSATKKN
notes: overhang left at the N terminus after removal of GST by precision (3C) protease; the shorter isoform, not NUB1L; codon-optimised synthetic gene in pGEX-6P-1; also called wild-type NUB1; source: E. coli BL21*, purified (GSH resin, GST–3C protease cleavage, gel filtration); not shown: GST, N-terminal, cleaved
Regarding B2, in test [2], the on-rate (kon) is 1600 ± 3000 M⁻¹ s⁻¹. For the same molecule, the “stoichiometry N” value in test [3] turned out to be 1. Moreover, the binding result in test [4] is “binds”. The affinity in test [1], expressed as Kd, was 176 ± 6.8 nM.
